Experimental data: US10227388B2, “Peptides and combination of peptides for use in immunotherapy against non-small cell lung cancer and other cancers” (immatics biotechnologies GmbH, priority 2015, dated 2019)

These substances were tested against HLA-A*02:01 (Homo sapiens, UniProt P04439, D140Y/D185E/D98H/E176V/E277Q/G131W/G231S/I119V/I121R/I166T/I218V/L300P/L318F/N151K/N90K/P208A/P217A/Q86G/Q94H/R138H/R169H/T345S) (assay: MHC binding assay (UV-ligand exchange, ELISA, peptide exchange yield)). Details: binding of HLA-class I restricted peptides to HLA-A*02:01.
Excerpt: Candidate peptides for T cell based therapies according to the present invention were further tested for their MHC binding capacity (affinity). The individual peptide-MHC complexes were produced by UV-ligand exchange, where a UV-sensitive peptide is cleaved upon UV-irradiation, and exchanged with the peptide of interest as analyzed. Only peptide candidates that can effectively bind and stabilize the peptide-receptive MHC molecules prevent dissociation of the MHC complexes. To determine the yield of the exchange reaction, an ELISA was performed based on the detection of the light chain ([…]) of stabilized MHC complexes. The assay was performed as generally described in Rodenko et al. (Rodenko et al., 2006).
96 well MAXISorp plates (NUNC) were coated over night with 2-ug/ml streptavidin in PBS at room temperature, washed 4× and blocked for 1 h at 37° C. in 2% BSA containing blocking buffer. […] Peptide-MHC monomers of the UV-exchange reaction were diluted 100 fold in blocking buffer. Samples were incubated for 1 h at 37° C., washed four times, incubated with 2-ug/ml HRP conjugated anti-β2m for 1 h at 37° C., washed again and detected with TMB solution that is stopped with […]. Absorption was measured at 450 nm. Candidate peptides that show a high exchange yield (preferably higher than 50%, most preferred higher than 75%) are generally preferred for a generation and production of antibodies or fragments thereof, and/or T cell receptors or fragments thereof, as they show sufficient avidity to the MHC molecules and prevent dissociation of the MHC complexes.

Peptide exchange (MHC class I binding score, peptide exchange yield) | Substance
″+++″ (≥50% = +++) | 74 (ALLDPEVLSIFV; listed as Homo sapiens) [compound 74]
″+++″ (≥50% = +++) | 75 (GLLEVMVNL; listed as Homo sapiens) [compound 75]
″+++″ (≥50% = +++) | 76 (ILIDSIYKV; listed as Homo sapiens) [compound 76]
″++++″ (≥75% = ++++) | 77 (ILVEADGAWVV; listed as Homo sapiens) [compound 77]
″+++″ (≥50% = +++) | 78 (SLFSSLEPQIQPV; listed as Homo sapiens) [compound 78]
″++″ (≥20% = ++) | 80 (FLYDNLVESL; listed as Homo sapiens) [compound 80]
″++″ (≥20% = ++) | 81 (FLFSQLQYL; listed as Homo sapiens) [compound 81]
″+++″ (≥50% = +++) | 82 (FLSSVTYNL; listed as Homo sapiens) [compound 82]
″+++″ (≥50% = +++) | 83 (ILAPTVMMI; listed as Homo sapiens) [compound 83]
″++″ (≥20% = ++) | 84 (VTFGEKLLGV; listed as Homo sapiens) [compound 84]
″+++″ (≥50% = +++) | 85 (KMSELRVTL; listed as Homo sapiens) [compound 85]
″+++″ (≥50% = +++) | 86 (NLIGKIENV; listed as Homo sapiens) [compound 86]
″++″ (≥20% = ++) | 87 (ALPEAPAPLLPHIT; listed as Homo sapiens) [compound 87]
″+++″ (≥50% = +++) | 88 (FLLVGDLMAV; listed as Homo sapiens) [compound 88]
″++++″ (≥75% = ++++) | 89 (YILPTETIYV; listed as Homo sapiens) [compound 89]
″+++″ (≥50% = +++) | 90 (TLLQIIETV; listed as Homo sapiens) [compound 90]
″++++″ (≥75% = ++++) | 91 (IMQDFPAEIFL; listed as Homo sapiens) [compound 91]
″++″ (≥20% = ++) | 92 (YLIPFTGIVGL; listed as Homo sapiens) [compound 92]
″++″ (≥20% = ++) | 93 (LLQAIKLYL; listed as Homo sapiens) [compound 93]
″++″ (≥20% = ++) | 94 (YLIDIKTIAI; listed as Homo sapiens) [compound 94]
″+++″ (≥50% = +++) | 95 (SVIPQIQKV; listed as Homo sapiens) [compound 95]

Peptide exchange (MHC class I binding score, peptide exchange yield) | Substance
″+++″ (≥50% = +++) | 96 (YIFTDNPAAV; listed as Homo sapiens) [compound 96]
″+++″ (≥50% = +++) | 97 (SLINGSFLV; listed as Homo sapiens) [compound 97]
″+++″ (≥50% = +++) | 98 (LIIDQADIYL; listed as Homo sapiens) [compound 98]
″++″ (≥20% = ++) | 99 (ALVSKGLATV; listed as Homo sapiens) [compound 99]
″++++″ (≥75% = ++++) | 100 (YLLSTNAQL; listed as Homo sapiens) [compound 100]
″+++″ (≥50% = +++) | 101 (ILVGGGALATV; listed as Homo sapiens) [compound 101]
″+++″ (≥50% = +++) | 102 (YLFESEGLVL; listed as Homo sapiens) [compound 102]
″+++″ (≥50% = +++) | 103 (TLAEEVVAL; listed as Homo sapiens) [compound 103]
″++++″ (≥75% = ++++) | 104 (STMEQNFLL; listed as Homo sapiens) [compound 104]
″+++″ (≥50% = +++) | 106 (LLYDAVHIVSV; listed as Homo sapiens) [compound 106]
″+++″ (≥50% = +++) | 107 (FLQPVDDTQHL; listed as Homo sapiens) [compound 107]
″++++″ (≥75% = ++++) | 108 (ALFPGVALLLA; listed as Homo sapiens) [compound 108]
″++++″ (≥75% = ++++) | 109 (IILSILEQA; listed as Homo sapiens) [compound 109]
″+++″ (≥50% = +++) | 110 (FLSQVDFEL; listed as Homo sapiens) [compound 110]
″+++″ (≥50% = +++) | 111 (YVWGFYPAEV; listed as Homo sapiens) [compound 111]
″++″ (≥20% = ++) | 114 (SLVGEPILQNV; listed as Homo sapiens) [compound 114]
″++″ (≥20% = ++) | 115 (AIAGAGILYGV; listed as Homo sapiens) [compound 115]
″+″ (≥10% = +) | 116 (YHIDEEVGF; listed as Homo sapiens) [compound 116]
″+++″ (≥50% = +++) | 117 (ILPDGEDFLAV; listed as Homo sapiens) [compound 117]
″++++″ (≥75% = ++++) | 119 (FLYIGDIVSL; listed as Homo sapiens) [compound 119]
″+++″ (≥50% = +++) | 120 (ALLGIPLTLV; listed as Homo sapiens) [compound 120]

Peptide exchange (MHC class I binding score, peptide exchange yield) | Substance
″++″ (≥20% = ++) | 121 (GVVDPRAISVL; listed as Homo sapiens) [compound 121]
″+++″ (≥50% = +++) | 122 (FLLAEDDIYL; listed as Homo sapiens) [compound 122]
″+++″ (≥50% = +++) | 123 (NLWDLTDASVV; listed as Homo sapiens) [compound 123]
″++″ (≥20% = ++) | 124 (ALYETELADA; listed as Homo sapiens) [compound 124]
″+++″ (≥50% = +++) | 125 (VQIHQVAQV; listed as Homo sapiens) [compound 125]
″++++″ (≥75% = ++++) | 126 (VLAYFLPEA; listed as Homo sapiens) [compound 126]
″++″ (≥20% = ++) | 127 (KIGDEPPKV; listed as Homo sapiens) [compound 127]
″++″ (≥20% = ++) | 128 (YLFDDPLSAV; listed as Homo sapiens) [compound 128]
″+++″ (≥50% = +++) | 129 (GLLDGGVDILL; listed as Homo sapiens) [compound 129]
″+++″ (≥50% = +++) | 130 (FLWNGEDSALL; listed as Homo sapiens) [compound 130]
″++″ (≥20% = ++) | 131 (FVPPVTVFPSL; listed as Homo sapiens) [compound 131]
″+++″ (≥50% = +++) | 132 (LLVEQPPLAGV; listed as Homo sapiens) [compound 132]
″++″ (≥20% = ++) | 133 (KVLSNIHTV; listed as Homo sapiens) [compound 133]
″+++″ (≥50% = +++) | 134 (YLQELIFSV; listed as Homo sapiens) [compound 134]
″+++″ (≥50% = +++) | 135 (ALSEVDFQL; listed as Homo sapiens) [compound 135]
″+++″ (≥50% = +++) | 136 (YLADPSNLFVV; listed as Homo sapiens) [compound 136]
″++++″ (≥75% = ++++) | 137 (TLVLTLPTV; listed as Homo sapiens) [compound 137]
″+++″ (≥50% = +++) | 138 (YQYPRAILSV; listed as Homo sapiens) [compound 138]
″+++″ (≥50% = +++) | 139 (SVMEVNSGIYRV; listed as Homo sapiens) [compound 139]
